For experiment [1], the target named is IFN-αR1 (IFNAR1), type I interferon receptor subunit on cells (human) (UniProt P17181).
In experiment [2] the target is IFN-αR2 (IFNAR2), type I interferon receptor subunit on cells (human) (UniProt P48551).

For the substance “Histidine (His)-tagged IFN-ε (IFN-ε^His), recombinant, expressed in E. coli (ligand)”, the growth inhibition of Daudi cells, IC50 in experiment [1] and in experiment [2] was 100 µM throughout.

(Values after patent US6299877.)
